Test results published in patent US20120058906A1 (published 2012).

Columns and labels:
[1] = target: T1, rHuman IGF-1 sR (IGF-1 sR), CF (R&D Systems Cat#391-GR) (human, UniProt P08069 31-932); experiment: ECL (MSD multi-spot), antigen spotted on plate; Fab 8 nM; blank 1117
T1 construct: Bought soluble receptor; also called insulin-like growth factor-1 soluble receptor; IGF-R1

[2] = target: T2, Recombinant Human DLL4 (R&D Systems Cat#1506-D4/CF) (human, UniProt Q9NR61 27-524); experiment: as above
T2 construct: Bought protein; also called rHuman DLL4; delta-like protein 4

[3] = target: T3, rHuman EGF R/Fc Chimera, CF (R&D Systems Cat#344-ER) (human, UniProt P00533 25-645); experiment: as above
T3 construct: Bought protein; also called epidermal growth factor receptor; Fc part of the bought chimera not given

[4] = target: T4, rHuman HGF R/c-MET/Fc Chimera, CF (R&D Systems Cat#358-MT/CF) (human, UniProt P08581 25-932); experiment: as above
T4 construct: Bought protein; also called HGF R/Fc; hepatocyte growth factor receptor; Fc part of the bought chimera not given

[5] = target: T1, rHuman IGF-1 sR (IGF-1 sR), CF (R&D …); experiment: ECL (MSD multi-spot), antigen spotted on plate; Fab 1.6 nM; blank 713
[6] = target: T2, Recombinant Human DLL4 (R&D Systems …); experiment: as above
[7] = target: T3, rHuman EGF R/Fc Chimera, CF (R&D …); experiment: as above
[8] = target: T4, rHuman HGF R/c-MET/Fc Chimera, CF (R&D …); experiment: as above
[9] = target: T1, rHuman IGF-1 sR (IGF-1 sR), CF (R&D …); experiment: ECL (MSD multi-spot), antigen spotted on plate; Fab 40 nM; blank 1442
[10] = target: T2, Recombinant Human DLL4 (R&D Systems …); experiment: as above
[11] = target: T3, rHuman EGF R/Fc Chimera, CF (R&D …); experiment: as above
[12] = target: T4, rHuman HGF R/c-MET/Fc Chimera, CF (R&D …); experiment: as above
[13] = target: T1, rHuman IGF-1 sR (IGF-1 sR), CF (R&D …); experiment: ECL (MSD multi-spot), antigen spotted on plate; Fab 0.32 nM; blank 518
[14] = target: T2, Recombinant Human DLL4 (R&D Systems …); experiment: as above
[15] = target: T3, rHuman EGF R/Fc Chimera, CF (R&D …); experiment: as above
[16] = target: T4, rHuman HGF R/c-MET/Fc Chimera, CF (R&D …); experiment: as above
[17] = target: T1, rHuman IGF-1 sR (IGF-1 sR), CF (R&D …); experiment: ECL (MSD multi-spot), antigen spotted on plate; Fab 200 nM; blank 1787
[18] = target: T2, Recombinant Human DLL4 (R&D Systems …); experiment: as above
[19] = target: T3, rHuman EGF R/Fc Chimera, CF (R&D …); experiment: as above
[20] = target: T4, rHuman HGF R/c-MET/Fc Chimera, CF (R&D …); experiment: as above
[21] = target: T1, rHuman IGF-1 sR (IGF-1 sR), CF (R&D …); experiment: ECL (MSD multi-spot), antigen spotted on plate; Fab 1000 nM; blank 2186
[22] = target: T2, Recombinant Human DLL4 (R&D Systems …); experiment: as above
[23] = target: T3, rHuman EGF R/Fc Chimera, CF (R&D …); experiment: as above
[24] = target: T4, rHuman HGF R/c-MET/Fc Chimera, CF (R&D …); experiment: as above
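Note: blank spot per well as comparator with Hit at signal to blank ratio of 4 or more.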

- ECL signal [1]: 1520
- ECL signal [2]: 44800
- ECL signal [3]: 1470
- ECL signal [4]: 1620
- ECL signal [5]: 966
- ECL signal [6]: 5920
- ECL signal [7]: 987
- ECL signal [8]: 861
- ECL signal [9]: 2140
- ECL signal [10]: 62000
- ECL signal [11]: 2300
- ECL signal [12]: 2110
- ECL signal [13]: 630
- ECL signal [14]: 916
- ECL signal [15]: 709
- ECL signal [16]: 710
- ECL signal [17]: 2780
- ECL signal [18]: 58700
- ECL signal [19]: 2920
- ECL signal [20]: 2840
- ECL signal [21]: 3070
- ECL signal [22]: 35300
- ECL signal [23]: 3580
- ECL signal [24]: 3310
B1: Fab VH1-46_IGHD6-6*01>1_IGHJ1*01_S104F & L6_IGKJ1*01 (Fab, V domains shown)
VH: QVQLVQSGAEVKKPGASVKVSCKASGYTFTSYYMHWVRQAPGQGLEWMGIINPSGGSTSYAQKFQGRVTMTRDTSTSTVYMELSSLRSEDTAVYYCAREEYSSFSAEYFQHWGQGTLVTVSS
VL: not shown
notes: Expressed in E. coli as a Fab; The heavy chain also carries the CH1 with Flag and His tags from Plasmid A, and the light chain the kappa CL from Plasmid C; also called VH1-46_IGHD6-6*01_IGHJ1*01 S104F & L6_IGKJ1*01; IGHV1-46*01
